Source: paper PMC3798605 (2013)

Tests used:
TbPIP39 wild type [1] = biological target: T1, TbPIP39 wild type (Trypanosoma brucei); experiment: SPR; 2 mM citrate, steady state
TbPIP39 wild type [2] = biological target: T1, TbPIP39 wild type; experiment: SPR; 2 mM citrate

B1: TbPTP1 (enzyme)
chain: MSTAKSFPMAQLSTRAQYSRMQREFVQLQRQENPRNINFTTSLKNRHKNRYLDILANEETIYPPVLKAVGAQPGRYPYINGNLIDLDLPHTFVACQAPVPQGVPDFLETLSEKKVDLVVMLTKLREGGVLKAERYWPEEEEDSLSFPESGHDAIKVTRDAEASYEVDAELDIVRRPLVIHVPGKPMHRVLQVQYVGWPDHGVPESAASFDELLSVIKNCVTTSPILVHCSAGIGRTGTLIGAYAALLHIERGILTDSTVYSIVAAMKQKRFGMVQRLEQYAVIYMTVLGRLGVDISGLVSTLNLKA
**Q.** With B1 as the binder, how does the Kd (TbPIP39 wild type [1]) read?
**A.** Its Kd is 50.8 µM.

**Q.** And the Kd (TbPIP39 wild type [2])?
**A.** Its Kd is 42 µM.

**Q.** What about the koff (TbPIP39 wild type [2]) of the same binder?
**A.** The koff was 0.05 s⁻¹.
